Reference: PMC7425896, “Polypeptides derived from α-Synuclein binding partners to prevent α-Synuclein fibrils interaction with and take-up by cells” (PLoS ONE, 2020)

Target: α-Synuclein fibrils (preformed fibrils of recombinant human wild-type αSyn) (human, UniProt P37840 1-140)
Assay: co-sedimentation; as a4 with a range of peptide concentrations (0–200 μM) and αSyn fibrils (100 μM); bound peptide by reversed phase chromatography
Settings: both partners purified

B1: Hsc-10 (Hsc70-derived peptide) (peptide)
peptide: GILNVSAVDKSTGKENKITITN
notes: Hsc70 residues 484–505; source: synthetic peptide; bought: GL Biochem Ltd
In the case of B1, the Kd is reported as greater than 100 µM.

B2: Hsc-6 (Hsc70-derived peptide) (peptide)
peptide: TKQTQTFTTYSDNQPGVLIQVYE
notes: Hsc70 residues 422–444; source: synthetic peptide; bought: GL Biochem Ltd
For B2, the Kd was greater than 100 µM.
